Patent US20150203840A1 (ARGEN X N V, published 2015)
Where a chain is given by its changes, count along the chain named.

Tests used:
[1] = biological target: T1, human IL22R on BW-hIL22R cells (human, UniProt Q8N6P7 16-574); experiment: cell-based or functional assay
T1 sequence (looked up): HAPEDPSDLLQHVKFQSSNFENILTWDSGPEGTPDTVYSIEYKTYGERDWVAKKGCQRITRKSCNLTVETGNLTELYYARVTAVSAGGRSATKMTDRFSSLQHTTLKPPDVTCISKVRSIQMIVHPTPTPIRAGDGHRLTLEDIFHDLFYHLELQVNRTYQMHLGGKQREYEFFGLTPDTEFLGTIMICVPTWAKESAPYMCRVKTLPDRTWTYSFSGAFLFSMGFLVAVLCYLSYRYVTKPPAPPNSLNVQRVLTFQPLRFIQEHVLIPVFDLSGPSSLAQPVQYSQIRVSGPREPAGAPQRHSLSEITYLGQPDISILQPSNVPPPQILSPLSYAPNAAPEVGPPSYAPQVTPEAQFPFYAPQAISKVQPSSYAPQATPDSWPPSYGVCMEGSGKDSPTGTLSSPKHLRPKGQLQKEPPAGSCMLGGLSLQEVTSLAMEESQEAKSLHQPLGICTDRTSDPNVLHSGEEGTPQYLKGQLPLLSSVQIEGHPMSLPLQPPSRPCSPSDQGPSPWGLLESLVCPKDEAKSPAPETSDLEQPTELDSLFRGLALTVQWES

[2] = biological target: T2, recombinant human IL22R1 (human IL22R ECD) (human, UniProt Q8N6P7 16-228, biotinylated in the ELISA of Table 4); experiment: Biacore, hIL22R
T2 construct: extracellular domain; also called hIL22R; human Interleukin 22 receptor
T2 sequence (looked up): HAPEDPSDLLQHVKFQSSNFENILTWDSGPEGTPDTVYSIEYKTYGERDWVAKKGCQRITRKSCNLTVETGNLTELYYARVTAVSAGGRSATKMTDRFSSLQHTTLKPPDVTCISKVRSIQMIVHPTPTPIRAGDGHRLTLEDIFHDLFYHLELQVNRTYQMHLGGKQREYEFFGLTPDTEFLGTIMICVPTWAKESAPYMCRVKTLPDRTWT

[3] = biological target: T1, human IL22R on BW-hIL22R cells; experiment: cell-based or functional assay; remark: listed apart in the source
[4] = biological target: T3, recombinant mouse IL22R1 (mouse IL22R ECD) (mouse, UniProt Q80XZ4 16-230, biotinylated in the ELISA of Table 4); experiment: Biacore, mIL22R
T3 construct: extracellular domain; also called mIL22R; mIL22R1
T3 sequence (looked up): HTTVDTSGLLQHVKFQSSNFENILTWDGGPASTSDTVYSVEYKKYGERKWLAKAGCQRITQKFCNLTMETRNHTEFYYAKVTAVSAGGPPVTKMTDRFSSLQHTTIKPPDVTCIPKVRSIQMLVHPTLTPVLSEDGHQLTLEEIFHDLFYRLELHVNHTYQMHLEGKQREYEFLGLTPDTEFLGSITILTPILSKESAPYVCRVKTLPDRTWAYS

[5] = biological target: T4, mouse IL22R on BaF3-mIL22R cells (mouse, UniProt Q80XZ4 16-581); experiment: cell-based or functional assay
T4 sequence (looked up): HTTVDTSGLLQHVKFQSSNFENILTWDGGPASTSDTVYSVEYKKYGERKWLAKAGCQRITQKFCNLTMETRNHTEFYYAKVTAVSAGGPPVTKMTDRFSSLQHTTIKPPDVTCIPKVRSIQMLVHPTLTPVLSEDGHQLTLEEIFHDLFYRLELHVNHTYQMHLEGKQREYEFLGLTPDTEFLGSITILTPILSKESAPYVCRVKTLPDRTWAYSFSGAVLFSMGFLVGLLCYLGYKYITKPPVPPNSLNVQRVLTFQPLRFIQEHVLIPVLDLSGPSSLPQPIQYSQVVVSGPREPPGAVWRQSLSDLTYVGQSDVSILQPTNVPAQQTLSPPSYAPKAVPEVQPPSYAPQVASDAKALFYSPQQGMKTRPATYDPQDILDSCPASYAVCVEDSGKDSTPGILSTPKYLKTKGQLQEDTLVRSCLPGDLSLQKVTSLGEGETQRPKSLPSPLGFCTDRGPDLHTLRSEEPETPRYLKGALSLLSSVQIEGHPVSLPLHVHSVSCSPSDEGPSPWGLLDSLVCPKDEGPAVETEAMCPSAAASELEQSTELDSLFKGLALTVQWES

[6] = biological target: T3, recombinant mouse IL22R1 (mouse IL22R …); experiment: screening of clones selected on mouse IL22R; method not detailed
[7] = biological target: T5, recombinant human IL22R1 (human IL22R ECD) (human) (UniProt Q8N6P7); experiment: ELISA, mAb coated at 100 ng/ml, biotinylated human IL22R ECD at 100 ng/ml, streptavidin-HRP
T5 sequence (biotinylated in the ELISA of Table 4, looked up): T2 sequence (looked up)

[8] = biological target: cyno IL22R ECD (cyno); experiment: ELISA, mAb coated at 100 ng/ml, biotinylated cyno IL22R ECD at 2 ng/ml, streptavidin-HRP
[9] = biological target: T6, rhesus IL22R ECD (rhesus) (UniProt G7MHN4); experiment: ELISA, mAb coated at 100 ng/ml, biotinylated rhesus IL22R ECD at 100 ng/ml, streptavidin-HRP
T6 sequence (chain, biotinylated): T2 sequence (looked up) with S18N, L73H, S99N, T105A, S115P, K167E, A194S, E196K, K205R

[10] = biological target: T7, recombinant mouse IL22R1 (mouse IL22R ECD) (mouse) (UniProt Q80XZ4); experiment: Biacore, immobilized mouse IL22R ECD
T7 sequence (biotinylated in the ELISA of Table 4, looked up): T3 sequence (looked up)

[11] = biological target: T5, recombinant human IL22R1 (human IL22R ECD) (human); experiment: ELISA, mAb coated at 100 ng/ml, biotinylated human IL22R ECD at 2 ng/ml, streptavidin-HRP
[12] = biological target: cyno IL22R ECD (cyno); experiment: ELISA, mAb coated at 100 ng/ml, biotinylated cyno IL22R ECD at 100 ng/ml, streptavidin-HRP
[13] = biological target: T7, recombinant mouse IL22R1 (mouse IL22R ECD) (mouse); experiment: ELISA, mAb coated at 100 ng/ml, biotinylated mouse IL22R ECD at 2 ng/ml, streptavidin-HRP
[14] = biological target: T6, rhesus IL22R ECD (rhesus); experiment: ELISA, mAb coated at 100 ng/ml, biotinylated rhesus IL22R ECD at 2 ng/ml, streptavidin-HRP
[15] = biological target: T7, recombinant mouse IL22R1 (mouse IL22R ECD) (mouse); experiment: ELISA, mAb coated at 100 ng/ml, biotinylated mouse IL22R ECD at 100 ng/ml, streptavidin-HRP
[16] = biological target: T5, recombinant human IL22R1 (human IL22R ECD) (human); experiment: Biacore, immobilized human IL22R ECD

B1: 170B2 (antibody, V domains shown)
VH: EVQLVESGGGLVQPGGSLRLSCAASGFTFSSSWMYWVRQAPGKGLEFVSVINTRSGITHYVESVKGRFTISTDNAKNTLFLQMNSLKSEDTAVYYCATRIQGLIDYWGQGTQVTVSS
VL: DIVMTQSPSSLSVSLGDRVTITCQASQSIGSVNALAWYQQKPGQSLKLLIHGASRLQTGVPSRFSGSGSGTSFTLAISGVEAEDLATYYCLQDYAWPLTFGQGTKVELK
notes: Llama-derived parental clone; also called VH_170B2; VK_170B2
Potency (pM) BW-hIL22R [1]: 106 pM
Kd [2]: 0.12 nM
IC50 pM (potency on human IL22R expressing cells) [3]: ~106 pM

B2: 196C2 (antibody, V domains shown)
VH: B1 VH
VL: DIQMTQSPSSLSASLGDRVTITCQASQSISSLLAWYQQKPGQAPKLLIYGASRLQTGVPSRFSGSGSGTSFTLTISGVEAEDLATYYCLQDYSWPLTFGQGTKVELK
notes: Vkappa-shuffled clone of 170B2 (keeps the 170B2 VH-CH1); also called VK_196C2
Kd [4]: 0.45 nM
Potency (pM) BW-hIL22R [1]: 67 pM
Potency (pM) BaF3-mIL22R [5]: 870 pM
Kd [2]: 0.08 nM
IC50 pM (potency on human IL22R expressing cells) [3]: 67 pM

B3: 198G11 (antibody, V domains shown)
VH: B1 VH
VL: DIVMTQSPSSLSASLGDRVTVTCQASQSIRSSLNWYQQKPGQAPKLLIYGASRLRIGVPSRFSGSASGTSFTLTISGVESEDLATYYCLQDYTWPLSFGSGTRLEIK
notes: Vkappa-shuffled clone of 170B2 (keeps the 170B2 VH-CH1); also called VK_198G11
binding result [6]: binds
IC50 pM (potency on human IL22R expressing cells) [3]: 132 pM

B4: 197G10 (antibody, V domains shown)
VH: B1 VH
VL: DIQMTQSPSSMSASLGDSVTISCQASENIGTQLFWYQQNAGQPPKLLIYGASRLQTGVPSRFSGSGSGTTFTLTISGVETGDLATYYCLQDYSWPLTFGQGTKVELK
notes: Vkappa-shuffled clone of 170B2 (keeps the 170B2 VH-CH1); also called VK_197G10
Kd [4]: 0.45 nM
Potency (pM) BW-hIL22R [1]: 124 pM
Potency (pM) BaF3-mIL22R [5]: 790 pM
Kd [2]: 0.29 nM
IC50 pM (potency on human IL22R expressing cells) [3]: 124 pM

B5: 197D3 (antibody, V domains shown)
VH: B1 VH
VL: B2 VL with I21V, S30R, L32S, A34N, Q55R, T56I, G66A, D91E, S93A
notes: Vkappa-shuffled clone of 170B2 (keeps the 170B2 VH-CH1); also called VK_197D3
Kd [4]: 0.37 nM
Potency (pM) BW-hIL22R [1]: 57 pM
Kd [2]: 0.089 nM
IC50 pM (potency on human IL22R expressing cells) [3]: 57 pM

B6: 196F8 (antibody, V domains shown)
VH: B1 VH
VL: B2 VL with L32M, K45N, G66R
notes: Vkappa-shuffled clone of 170B2 (keeps the 170B2 VH-CH1); also called VK_196F8
Kd [4]: 0.31 nM
Potency (pM) BW-hIL22R [1]: 87 pM
Potency (pM) BaF3-mIL22R [5]: 105 pM
Kd [2]: 0.01 nM
IC50 pM (potency on human IL22R expressing cells) [3]: 87 pM

B7: 197B7 (antibody, V domains shown)
VH: B1 VH
VL: B2 VL with Q3V, S30R, L32F, L33I, A34D, A51T, Q55E, S65T
notes: Vkappa-shuffled clone of 170B2 (keeps the 170B2 VH-CH1); also called VK_197B7
Kd [4]: 0.39 nM
Potency (pM) BW-hIL22R [1]: 69 pM
Potency (pM) BaF3-mIL22R [5]: 160 pM
Kd [2]: 0.038 nM
IC50 pM (potency on human IL22R expressing cells) [3]: 69 pM

B8: 198C9 (antibody, V domains shown)
VH: B1 VH
VL: DIVMTQSPSSLSASLGDRVTITCQATQSISTFLSWYQQKPGQTPKLLVYGASRLQTGVPSRFSGTGSGTKFTLTISGVEAEDLASYFCLQDYSWPLTFGQGTKVELK
notes: Vkappa-shuffled clone of 170B2 (keeps the 170B2 VH-CH1); also called VK_198C9
binding result [6]: binds
IC50 pM (potency on human IL22R expressing cells) [3]: 89 pM

B9: 198B7 (antibody, V domains shown)
VH: B1 VH
VL: B2 VL with L32Q
notes: Vkappa-shuffled clone of 170B2 (keeps the 170B2 VH-CH1); also called VK_198B7
binding result [6]: binds

B10: 205A5 (antibody, part only; not given: parental light chain variable domain, V domains shown, part only)
VH: QVQLVESGGGLVQPGGSLRLSCAASGFTFNSYEMYWVRQAPGKGLEWVSGITADGGYTYYADSVKGRFTMSRDNAKNTLYLQMNSLKPEDTALYYCANLWNDYWGQGTQVIVSS
Absorption at 620 nm (relative absorption units) [7]: 2.93
Absorption at 620 nm (relative absorption units) [8]: 1.36
Absorption at 620 nm (relative absorption units) [9]: 2.77
Kd [10]: 0.007 nM
koff [10]: 1e-06 s⁻¹
kon [10]: 150000 M⁻¹ s⁻¹
Absorption at 620 nm (relative absorption units) [11]: 1
Absorption at 620 nm (relative absorption units) [12]: 2.66
Absorption at 620 nm (relative absorption units) [13]: 0.172
Absorption at 620 nm (relative absorption units) [14]: 1.17
Absorption at 620 nm (relative absorption units) [15]: 2.36
Kd [16]: 0.0019 nM
koff [16]: 3.1e-07 s⁻¹
kon [16]: 160000 M⁻¹ s⁻¹

B11: 205A9 (antibody, part only; not given: parental heavy chain variable domain, V domains shown, part only)
VL: HSAVTQPSAVSVSLGQTARITCQGGNFGSYYASWYQQKPGQAPVLVIYDDDRRPSGIPERFSGSSSGGRSTLTISGAQSGDEGDYYCQSADLSGNPVFGGGTHLTVL
Absorption at 620 nm (relative absorption units) [7]: 2.57
Absorption at 620 nm (relative absorption units) [9]: 2.59
Kd [10]: 1.8 nM
koff [10]: 0.00048 s⁻¹
kon [10]: 260000 M⁻¹ s⁻¹
Absorption at 620 nm (relative absorption units) [11]: 1.03
Absorption at 620 nm (relative absorption units) [12]: 2.18
Absorption at 620 nm (relative absorption units) [13]: 1.86
Absorption at 620 nm (relative absorption units) [14]: 1.97
Absorption at 620 nm (relative absorption units) [15]: 2.36
Kd [16]: 0.42 nM
koff [16]: 0.00028 s⁻¹
kon [16]: 670000 M⁻¹ s⁻¹
